± gives the standard deviation of the averaged measurements.
Tested on: Saccharomyces cerevisiae
Test: protein stability index of tFT-peptide fusion (C-terminal peptide) (PSI (0-1 scale)); higher = more stable (slower turnover)
Conditions: genetic background: wild type; temperature: 30 C
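Also: PSI is a weighted mean of sequencing reads over stability bins, variants kept only with over 10 reads, mCherry proximal and sfGFP distal, peptide attached via GGGS linker.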

| Sequence | protein stability index |
| --- | --- |
| APSPPPDPATPR | 0.672 ± 0.026 |
| LSPPQRISLIPY | 0.659 ± 0.03 |
| DAWRAGESTEGG | 0.71 ± 0.027 |
| FGNVLISMRNRL | 0.834 ± 0.11 |
| VGAGRGKGRGGG | 0.617 ± 0.013 |
| GDGVIVEVEGVN | 0.675 ± 0.071 |
| TRECGRLRQAET | 0.723 ± 0.067 |
| PLSPLVPVRTRP | 0.682 ± 0.072 |
| AAPGMIFRDPAQ | 0.739 ± 0.18 |
| IVFTPPSVTFHA | 0.825 ± 0.22 |
| RRLPPSRSAPFP | 0.698 ± 0.028 |
| SGSRWYYSLGRG | 0.709 ± 0.043 |
| WGWGVASRCCEG | 0.72 ± 0.042 |
| FLSEFFMPSPFP | 0.745 ± 0.097 |
| SGIRGWNLGEMW | 0.7152 ± 0.0068 |
| ARSDRLPNILPY | 0.679 ± 0.071 |
| GRVPSPDIGLPA | 0.672 ± 0.022 |
| SCLSGALPPFLA | 0.668 ± 0.042 |
| LVLSGSAFFYLG | 0.666 ± 0.029 |
| PLRGRRPIFPAP | 0.724 ± 0.088 |
| PPPPTPHRSPLL | 0.598 ± 0.029 |
| PLPRPPSPPYPP | 0.65 ± 0.035 |
| RGGGGGRVAREC | 0.668 ± 0.011 |
| RARASLIPNAGT | 0.705 ± 0.037 |
| LLPRQSRYNAHF | 0.669 ± 0.075 |
| GSNTTKRESQPH | 0.708 ± 0.067 |

| Sequence | protein stability index |
| --- | --- |
| FCRFCEFIFIFL | 0.499 ± 0.056 |
| DSRSPSTTLIPL | 0.6623 ± 0.0018 |
| PPHPTPRTLPSP | 0.691 ± 0.0027 |
| DPGGLSNYSRAS | 0.67 ± 0.036 |
| LKRGKIVDRGWY | 0.641 ± 0.082 |
| APPPPHSSHPPP | 0.713 ± 0.027 |
| PPPPPSAPSPLP | 0.665 ± 0.05 |
| PPLPPPQDPRLP | 0.7 ± 0.097 |
| LRCCGGCGVCAL | 0.686 ± 0.03 |
| LHPPLALPRPPP | 0.711 ± 0.05 |
| GPSTVPGHGSDT | 0.689 ± 0.021 |
| GCFYYWSVNVSY | 0.5599 ± 0.0036 |
| VVLWGAVSIVRT | 0.616 ± 0.028 |
| SPRRSPLLLLPL | 0.723 ± 0.064 |
| GGWPWGGFLVDR | 0.735 ± 0.012 |
| KKKKPKKKTQKS | 0.713 ± 0.04 |
| SRGMRNPLSADR | 0.645 ± 0.098 |
| ARTGRELVLPKG | 0.663 ± 0.0089 |
| GRKNPPGTTDES | 0.725 ± 0.073 |
| GKHIAEMGNRKN | 0.716 ± 0.074 |
| GRRWKQHPGWVS | 0.573 ± 0.051 |
| WVVGCVRGVWGA | 0.712 ± 0.051 |
| LGWGRGGPLSGG | 0.6937 ± 0.0018 |
| SSPPTPPFPPPP | 0.7044 ± 0.00099 |
| PPHSHRSRHPPP | 0.688 ± 0.061 |
| IRPPVLTDAIHS | 0.708 ± 0.013 |

| Sequence | protein stability index |
| --- | --- |
| TYVSKCRLYEPA | 0.644 ± 0.011 |
| FVVRGVFVSGFW | 0.582 ± 0.019 |
| DCRPNIRSRVSG | 0.785 ± 0.18 |
| ASSTSSPPPLPP | 0.666 ± 0.032 |
| PPTCRLQPYSRN | 0.759 ± 0.013 |
| IGGPIIYTGRLH | 0.682 ± 0.19 |
| VFITSLWTPLLL | 0.617 ± 0.019 |
| SSPSPPSPPLPP | 0.735 ± 0.0095 |
| DVGSPFSISVQS | 0.647 ± 0.045 |
| GSSAEGKALTES | 0.668 ± 0.053 |
| LIGTAPGITGFN | 0.661 ± 0.011 |
| FVPSSVFLFCLG | 0.545 ± 0.023 |
| RFRDSGRWLSAE | 0.765 ± 0.063 |
| WFLFIPLACLRP | 0.592 ± 0.0079 |
| GTGMHEGEPGEV | 0.686 ± 0.046 |
| VCRVGGVMAGDT | 0.669 ± 0.049 |
| RITKKRQQIKKR | 0.7482 ± 0.0028 |
| VLSEHRGLPLTR | 0.659 ± 0.066 |
| ALSPAPGTSLMR | 0.69 ± 0.016 |
| CRRSCPRLTVTR | 0.746 ± 0.015 |
| GLVGPKDRVSGL | 0.701 ± 0.018 |
| PLPPPPTPPVLP | 0.691 ± 0.016 |
| PLPPPPRPRPPL | 0.721 ± 0.04 |
| SSPFSLPSPPLS | 0.676 ± 0.071 |
| VMCWARGWVGST | 0.655 ± 0.05 |
| SKKKTKKRRKKN | 0.698 ± 0.023 |

| Sequence | protein stability index |
| --- | --- |
| SPWERTEMTFPR | 0.822 ± 0.18 |
| VVVARGGEEGWW | 0.656 ± 0.12 |
| RTDRIVGGNERV | 0.661 ± 0.0072 |
| KVAILAIPKCWT | 0.644 ± 0.022 |
| GGGGEAWGGLRW | 0.775 ± 0.055 |
| CSVPPPLPPTTF | 0.683 ± 0.073 |
| TPLPPLPPHPPS | 0.727 ± 0.0087 |
| WFNRRISPISGI | 0.676 ± 0.059 |
| MFGCGSRGSGVV | 0.695 ± 0.093 |
| LYPVPLSPPPAD | 0.676 ± 0.026 |
| IGISIRTAQGEL | 0.674 ± 0.02 |
| DEPGTEGAKPWR | 0.727 ± 0.074 |
| RWSPLLPPQVSL | 0.683 ± 0.019 |
| SGPSIPCFLYSS | 0.698 ± 0.013 |
| SSPRPPPPRFSP | 0.687 ± 0.039 |
| SSWGARSGRRPS | 0.6989 ± 0.0045 |
| KTKNIKTKDKPE | 0.673 ± 0.024 |
| DLLTRAYPWPAE | 0.692 ± 0.024 |
| SFRYVGLTRVFG | 0.592 ± 0.032 |
| PPPFRFPALLPP | 0.6778 ± 0.0007 |
| DEFCSHSLAGSS | 0.649 ± 0.024 |
| APYLPACALSSL | 0.706 ± 0.015 |
| HNMSDARRPSNI | 0.702 ± 0.021 |
| RPFYPLVRPRTR | 0.798 ± 0.2 |
| GRVKEKCKRRYR | 0.657 ± 0.034 |
| KRSIVSTDKDRY | 0.603 ± 0.045 |

| Sequence | protein stability index |
| --- | --- |
| DPAKRTLTRSRR | 0.673 ± 0.0079 |
| ICSDGIYTKGLC | 0.66 ± 0.024 |
| EVRTRSSRIHRI | 0.709 ± 0.082 |
| APPPFLCSPFVA | 0.698 ± 0.0092 |
| SRFKTVDCWKVW | 0.697 ± 0.097 |
| SRFQFCCCLFFF | 0.578 ± 0.0074 |
| LCAFPFSHPSSI | 0.74 ± 0.05 |
| DSKRIQSRLYYS | 0.66 ± 0.027 |
| CPPCPSAPPPLP | 0.752 ± 0.07 |
| TLSLPPLHPPPH | 0.699 ± 0.0063 |
| LTKTAHVGQLWL | 0.708 ± 0.025 |
| LRPASPVGRQTQ | 0.691 ± 0.04 |
| TFSGWYIQGQIV | 0.702 ± 0.16 |
| AGSSGVRLSEFP | 0.671 ± 0.11 |
| VRQKTPREQRVY | 0.701 ± 0.059 |
| GDSPLQAPPSLL | 0.708 ± 0.1 |
| ASCHFSILPTRL | 0.67 ± 0.032 |
| CLLSRGLTVSYS | 0.626 ± 0.012 |
| SSLTPRVSFIIF | 0.64 ± 0.12 |
| DRLPRHLPSLLP | 0.715 ± 0.037 |
| REVGSTILAVVH | 0.645 ± 0.031 |
| LSSCVRVSFLFF | 0.588 ± 0.028 |
| WLVFRISLLRFD | 0.541 ± 0.026 |
| KSKKNKTEKTKE | 0.665 ± 0.027 |
| ETGMSHHINRIW | 0.752 ± 0.054 |
| SAGGARSLQMFC | 0.66 ± 0.027 |

| Sequence | protein stability index |
| --- | --- |
| KVKGGELVRTLR | 0.736 ± 0.021 |
| PPLTHPPPPLYL | 0.694 ± 0.008 |
| GISASLRRMTRR | 0.623 ± 0.017 |
| NGVLGYAVLEGE | 0.705 ± 0.044 |
| GGSGHGAGAVWG | 0.6979 ± 0.0057 |
| VNCFVYGKCCSG | 0.648 ± 0.072 |
| WGTGGRRGVGHV | 0.709 ± 0.066 |
| CSLRSSGLGFKQ | 0.62 ± 0.072 |
| PTPGRSPKRLPE | 0.752 ± 0.026 |
| GLQLTLINLPLE | 0.749 ± 0.029 |
| LTAGGGEACGPP | 0.625 ± 0.015 |
| GGYGRAGRDVGG | 0.655 ± 0.035 |
| RLLPVTISSSLS | 0.702 ± 0.031 |
| NKKKKQRINIRG | 0.749 ± 0.068 |
| KRIKTEKRRSKK | 0.748 ± 0.046 |
| RKGEASRVRWSE | 0.668 ± 0.061 |
| YEHPRLRNGSIM | 0.8 ± 0.24 |
| VRSSLDGDGLCG | 0.6869 ± 0.0046 |
| VGSLFGFGGRWV | 0.645 ± 0.0082 |
| YPGVSRCGTRWV | 0.643 ± 0.046 |
| LLYPALQHVSSV | 0.721 ± 0.12 |
| LTWVVNSGKGRC | 0.918 ± 0.087 |
| RKETQKIRKKRI | 0.679 ± 0.03 |
| HLGIGTRVWEFG | 0.716 ± 0.061 |
| NSALQELNKAVG | 0.625 ± 0.029 |
| VVFISGVYCSRL | 0.688 ± 0.1 |

| Sequence | protein stability index |
| --- | --- |
| RGVLVTVNWVSG | 0.499 ± 0.038 |
| EGGGGGGAPRVR | 0.752 ± 0.093 |
| LRAVCDLTGSRV | 0.68 ± 0.072 |
| CVGTDVWQASSR | 0.6 ± 0.057 |
| GAVRWGGAGVGV | 0.73 ± 0.063 |
| KPSHNEARKKGG | 0.681 ± 0.014 |
| PTRERPSDQPYP | 0.701 ± 0.04 |
| WGSSGWVGEGGG | 0.657 ± 0.044 |
| GNTGRLERLKRQ | 0.734 ± 0.072 |
| SVINMLKPCNVI | 0.647 ± 0.05 |
| GFKIEVIQASGS | 0.683 ± 0.025 |
| QEDNAIAVGWSA | 0.673 ± 0.008 |
| GVGFGCGGVWME | 0.731 ± 0.012 |
| GAIVLMSCRNVI | 0.634 ± 0.04 |
| CLVSGGRVSRGA | 0.6578 ± 0.0019 |
| PPPALPPPPFPP | 0.591 ± 0.011 |
| KKRTTKEKKQHK | 0.693 ± 0.033 |
| EIDMLVVRNLKH | 0.664 ± 0.044 |
| HHRNNTPLNHSY | 0.63 ± 0.007 |
| KGIGWSSDGGMG | 0.67 ± 0.02 |
| PPIPPPPPLPPP | 0.621 ± 0.023 |
| ARADIQIACIIE | 0.6418 ± 0.00089 |
| DVRNVCNISDEV | 0.654 ± 0.022 |
| RTPLPPPRPSTY | 0.719 ± 0.049 |
| PSLLHPPLPTSP | 0.657 ± 0.036 |
| ADPPLFYPPSHT | 0.69 ± 0.021 |

| Sequence | protein stability index |
| --- | --- |
| PPPTPRIPRPLR | 0.717 ± 0.02 |
| GGWRGWAGENTR | 0.699 ± 0.035 |
| PPPPLPPPPSPL | 0.653 ± 0.078 |
| LSDIDLLGLPIL | 0.66 ± 0.085 |
| SPPPPLELIPSP | 0.534 ± 0.025 |
| SGVRSPALLGRC | 0.68 ± 0.042 |
| QNWREDNKGKDI | 0.697 ± 0.032 |
| STLRFGVSLWLP | 0.712 ± 0.03 |
| FRLLLLKIKSEQ | 0.619 ± 0.034 |
| ETVFESFEVKCG | 0.68 ± 0.022 |
| FWVESGVFFFRP | 0.667 ± 0.017 |
| PSSTSPQPRLCF | 0.686 ± 0.027 |
| WCRHREYFYGSN | 0.657 ± 0.032 |
| GRRRSRGRPIDL | 0.754 ± 0.03 |
| PREVGVYQQIRD | 0.63 ± 0.019 |
| SLVAALHRPTFV | 0.679 ± 0.034 |
| PLHPSRPPPSSP | 0.708 ± 0.033 |
| KETNIKKRRARG | 0.6458 ± 0.0021 |
| LLSLSGVLLVPP | 0.656 ± 0.013 |
| PRPCASALPPHP | 0.712 ± 0.051 |

— the supplement of paper PMC10724198
